Source: PMC6131172, “The first crystal structure of a DNA-free nuclear receptor DNA binding domain sheds light on DNA-driven allostery in the glucocorticoid receptor” (Scientific Reports, 2018)

Target: the molecule itself
Experiment: crystal structure; hanging drop vapor diffusion at 18 °C; 25% PEG3350, 50 mM Tris pH8.5, 200 mM di-sodium tartrate; no reducing agents present; space group P1, eight molecules in the asymmetric unit

B1: glucocorticoid receptor (GR) DNA binding domain (DBD), residues 418–517 (domain or fragment, UniProt P04150 418-517, looked up)
chain: PKLCLVCSDEASGCHYGVLTCGSCKVFFKRAVEGQHNYLCAGRNDCIIDKIRRKNCPACRYRKCLQAGMNLEARKTKKKIKGIQQATTGVSQETSENPGN
notes: In the crystal two molecules are linked by a disulfide bridge via Cys431 (no reducing agents during crystallization); Each molecule holds two Zn2+; Mixed with a 35 nt RNA hairpin before crystallization, but no nucleic acid was found in the crystal; also called GR DBD; free GR DBD; not shown: His6-Sumo, N-terminal, cleaved
  binding result: binds
